Data taken from US7148021B2, “Human zona pellucida proteins and methods of their use in diagnosing male infertility” (Eastern Virginia Meical School, priority 2001, dated 2006).

How the values were obtained:
sperm [1] = test: Percentage of acrosome-reacted sperm as determined by FITC-PSA; type: cell-based, human; conditions: NT 30 ng/ml, calcium ionophore 5 μM, rhZP3 30 ng/ml, solubilized zona 0.5 ZP/μl, Mean (±SEM); for % Acrosome reacted-sperm: n = 29 ejaculates
Description: The acrosome reaction was studied in response to purified rhZP3, natural solubilized human ZP and the calcium ionophore.

sperm [2] = test: Weighted acrosome scoring of fluorescence-stained sperm morphology types; type: cell-based, human; conditions: for % of Type I (intact acrosome): column drawing 1; for % of Type II (damaged acrosome): column drawing 2; for % of Type III (equatorial segment): column drawing 3; for % of Type IV (no fluorescence in head): column drawing 4
Description: A representative example of this method is as follows. […] (See Arts et al, 1994 for further details useful for this example).
In a second step, each type is given a score. In this example, Type I has fluorescence in the acrosomal region, indicating intact acrosome; Type II has fluorescence in a clearly damaged acrosome; Type III has fluorescence in the equatorial segment; and Type IV has no detectable fluorescence in the head. Each type, in the representative example is given a score as follow. Type I has 0 points, Type II has 1 point, Type III has 1.5 points and Type IV has 2 points. Of course different numbers of types may be scored and different weighting systems may be used, depending on knowledge of the system used and the conditions and reagents used for scoring each type. In this example, the sperm are examined under a fluorescence microscope and the percentage of each category is recorded. To determine the total AR score, the percentage of each category type is multiplied by the appropriate point and added together as shown in the equation below and in […]

human sperm [3] = test: Acrosome reaction by rhZP3 after sperm capacitation time course; type: cell-based; conditions: 30 ng/mL, 4 hours capacitation
Experimental: The time course study of sperm capacitation in combination with rhZP3 was evaluated. After different periods of capacitation, sperm were treated with rhZP3 (30 ng/ml) for thirty minutes to trigger the acrosome reaction. […] In many embodiments with rhZP3 an approximate 4 hour capacitation time is preferred because at this time frame the sperm are 99% alive as compared to 86%, 82% and 66% of live sperm for 8, 12 and 24 hours of capacitation time respectively. Experiments were performed after 4 hours of capacitation. The ratio of acrosome-reacted spermatozoa increased by 1.5 fold, after incubation with 30 ng/mL rhZP3, as compared to controlled conditions. This increased activity is much stronger than the increased activity produced after incubation with rhZP3 made by CHO cells. The CHO cell product induced a similar percentage of acrosome reaction in human sperm following 24-hour sperm capacitation at a dose of 15–20 ng/μl (van Duin et al, 1994).

[4] = system: sperm-zona pellucida binding; test: Hemizona assay, inhibition of sperm-zona pellucida binding; type: cell-based, human
Description: Isolation and purification procedures A wide variety of isolation and purification procedures for ZP3, ZP2, ZP1 as whole proteins, glycosylated fragments, complexes, conjugates and as fusion proteins may be used in embodiments of the invention. […] Furthermore, data were obtained that establish the ability of rhZP3 to induce the sperm acrosomal reaction. […] Each of the techniques most preferably uses a human glycosylated ZP3 and/or ZP2 and/or ZP1.
This procedure was used to evaluate recombinant human ZP3 as described above.
The hemizona assay is employed as a parallel assay to evaluate the binding ability of GFP-rhZP3 coated agarose beads. An aliquot of semen is processed as described above. Both sperm and artificial zona are processed as described above. For each hemizona pair, the HZI was calculated as follows: (number of test sperm bound to the hemizona/number of fertile sperm bound to hemizona)×100. […]
A hemizona assay is to be carried out as a parallel assay to evaluate the binding ability of GFP-rhZP3 coated agarose beads. […] After capacitation, sperm sample are ready for use in a HZA. […] The number of sperm tightly bound to the outer surface are counted. For each hemizona pair, the HZI is calculated as follows: (number of test sperm bound to the hemizona/number of fertile sperm bound to hemizona)×100 (Burkman, et al.,1988). […]

human sperm [5] = conditions: 30 ng/mL; cited from earlier work
[6] = system: sperm-zona pellucida binding; conditions: hemizona assay; cited from earlier work

| Molecule | % Sperm viability (sperm [1]) | % Acrosome reacted-sperm (sperm [1]) | AR percentage (sperm [2]) | Score Type I (0 × %) (sperm [2]) | Score Type II (1 × %) (sperm [2]) | Score Type III (1.5 × %) (sperm [2]) | Score Type IV (2 × %) (sperm [2]) | Total AR score (sperm [2]) | % of Type I (intact acrosome) (sperm [2]) | % of Type II (damaged acrosome) (sperm [2]) | % of Type III (equatorial segment) (sperm [2]) | % of Type IV (no fluorescence in head) (sperm [2]) | increase of ratio of acrosome-reacted spermatozoa compared to control conditions (human sperm [3]) | hemizona index, in words [4] | live acrosome-reacted sperm (human sperm [5]) | minimally effective dose for sperm-zona pellucida binding inhibition [6] |
| --- | --- | --- | --- | --- | --- | --- | --- | --- | --- | --- | --- | --- | --- | --- | --- | --- |
| CNc1ccc2oc(C[C@H]3O[C@@]4(CC[C@H]3C)O[C@H]([C@H](C)C(=O)c3ccc[nH]3)[C@H](C)C[C@H]4C)nc2c1C(=O)O [Calcium ionophore, reference compound] | 96.5 (2.0) % | 22.5% | 32% | 0 | 7 | 27 | 30 | 64 | 60% | 7% | 18% | 15% | – | – | – | – |
| rhZP3: recombinant human zona pellucida protein 3 made by human ovarian cell line PA-1, correctly glycosylated (protein, listed as Homo sapiens, recombinant, glycosylated, made in PA-1 cells, recombinant human zona pellucida protein 3 made by human ovarian cell line PA-1, correctly glycosylated) MELSYRLFICLLLWGSTELCYPQPLWLLQGGASHPETSVQPVLVECQEATLMVMVSKDLFGTGKLIRAADLTLGPEACEPLVSMDTEDVVRFEVGLHECGNSMQVTDDALVYSTFLLHDPRPVGNLSIVRTNRAEIPIECRYPRQGNVSSQAILPTWLPFRTTVFSEEKLTFSLRLMEENWNAEKRSPTFHLGDAAHLQAEIHTGSHVPLRLFVDHCVATPTPDQNASPYHTIVDFHGCLVDGLTDASSAFKVPRPGPDTLQFTVDVFHFANDSRNMIYITCHLKVTLAEQDPDELNKACSFSKPSNSWFPVEGPADICQCCNKGDCGTPSHSRRQPHVMSQWSRSASRNRRHVTEEADVTVGPLIFLDRRGDHEVEQWALPSDTSVVLLGVGLAVVVSLTLTAVILVLTRRCRTASHPVSASE | – | 18.3% | 29% | 0 | 12 | 33 | 14 | 59 | 59% | 12% | 22% | 7% | 1.5 fold | dramatically decreasing the hemizona index | 19%±4.1% | 30 ng/mL |
